From patent US20140120095A1

Key:
Test in all cases: cell-based or functional assay
[1] = target: DII4-His (C-terminal His-tagged human DII4, amino acid 27-524) (human) (UniProt Q9NR61)
VEGF = VEGF (UniProt P15692)
[2] = target: VEGF (used to stimulate HUVEC cells) (UniProt P15692)
VEGF (used to stimulate HUVEC cells), sequence (P15692 other isoform, or with tags, fused parts or gaps limits assumed): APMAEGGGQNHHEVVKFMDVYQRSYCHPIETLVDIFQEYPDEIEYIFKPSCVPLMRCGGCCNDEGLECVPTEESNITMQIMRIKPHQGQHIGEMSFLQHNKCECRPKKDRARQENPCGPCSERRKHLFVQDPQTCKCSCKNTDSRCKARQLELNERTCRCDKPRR

VEGF, sequence (P15692 other isoform, or with tags, fused parts or gaps limits assumed): as above
DII4-His (C-terminal His-tagged human DII4, amino acid 27-524) (human), sequence (Q9NR61 25-522): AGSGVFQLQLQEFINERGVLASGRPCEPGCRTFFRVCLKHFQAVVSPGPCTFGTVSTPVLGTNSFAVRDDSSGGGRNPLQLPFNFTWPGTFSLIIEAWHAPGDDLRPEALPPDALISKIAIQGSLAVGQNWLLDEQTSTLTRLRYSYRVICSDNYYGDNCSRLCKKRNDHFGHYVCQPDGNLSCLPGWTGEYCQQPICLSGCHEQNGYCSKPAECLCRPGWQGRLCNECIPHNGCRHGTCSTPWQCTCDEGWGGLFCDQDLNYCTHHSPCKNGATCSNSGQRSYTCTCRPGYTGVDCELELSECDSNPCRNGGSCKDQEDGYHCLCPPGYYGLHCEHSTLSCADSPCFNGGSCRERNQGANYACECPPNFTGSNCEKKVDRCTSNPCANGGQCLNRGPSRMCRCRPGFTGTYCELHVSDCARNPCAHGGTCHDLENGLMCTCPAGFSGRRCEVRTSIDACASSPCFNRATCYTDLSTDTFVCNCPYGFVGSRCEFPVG

B1: DLLBII129B05 (VHH, not shown: small tags and cut ends)
VHH: EVQLVESGGGLVQAGGSLRLSCAASGRTFSSYAMAWYRQAPGKEREYVAAIRWSGGTAYYADSVQGRFTISRDNAKNTVYLQMNSLKPEDTAVYYCANRAPDTRLAPYEYDHWGQGTQVTVSS
In the case of B1, the IC50 (nM), DII4-mediated HUVEC proliferation assay, +HSA [1] is reported as 3.52 nM and the IC50 (nM), DII4-mediated HUVEC proliferation assay, -HSA [1] is reported as 2.32 nM.

B2: VEGFBII23B04 (VHH, not shown: small tags and cut ends)
VHH: EVQLVESGGGLVQTGDSLRLSCEVSGRTFSSYSMGWFRQAQGKEREFVVAISKGGYKYDSVSLEGRFTISKDNAKNTVYLQINSLKPEDTAVYYCASSRAYGSSRLRLADTYEYWGQGTQVTVSS
B2 was tested, and the % inhibition, VEGF HUVEC Erk phosphorylation assay, +HSA (VEGF) was 93%, the % inhibition, VEGF HUVEC Erk phosphorylation assay, -HSA (VEGF) was 91% and the IC50 (nM), VEGF HUVEC Erk phosphorylation assay, +HSA (VEGF) was 0.6 nM. The IC50 (nM), VEGF HUVEC Erk phosphorylation assay, -HSA (VEGF) was 0.69 nM.

B3: VEGFBII23A06 (VHH, not shown: small tags and cut ends)
VHH: EVQLVESGGGLVQPGDSLKLSCAFSGRTFSSYSMGWFRQAQGKEREFVVAISSGGFIYDAVSLEGRFTISRDNTKNTVYLQTPSLKPEDTAVYYCAASRAYGSSRLRLADTYDYWGQGTQVTVSS
With B3 the % inhibition, VEGF HUVEC proliferation assay [2] was 73% and the IC50, VEGF HUVEC proliferation assay [2] was 4.29 nM.
